In patent US20220305098:

Target: T1, S5a protein (Ube3a target protein), P55036
T1 chain: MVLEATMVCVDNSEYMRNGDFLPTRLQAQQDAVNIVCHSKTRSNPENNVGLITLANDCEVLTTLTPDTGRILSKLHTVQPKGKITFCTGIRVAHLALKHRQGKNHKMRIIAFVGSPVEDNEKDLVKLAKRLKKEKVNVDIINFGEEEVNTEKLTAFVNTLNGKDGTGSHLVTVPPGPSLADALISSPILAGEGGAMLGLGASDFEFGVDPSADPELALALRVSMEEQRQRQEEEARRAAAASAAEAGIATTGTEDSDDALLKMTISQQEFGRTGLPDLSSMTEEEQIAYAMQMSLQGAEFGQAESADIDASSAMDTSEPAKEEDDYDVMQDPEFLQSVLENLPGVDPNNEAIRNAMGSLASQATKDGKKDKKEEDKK

B1: Human Ube3a isoform 1 with 8xN-glycan sites and IL2 secretion signal (expressed from the hAS8 lentiviral vector) (protein)
chain: MKRAAAKHLIERYYHQLTEGCGNEACTNEFCASCPTFLRMDNNTAAIKALELYKINAKLCDPHPSKKGASSAYLENSTGAPNNTCSEIKMNKKGARIDFKDVTYLTEEKVYEILELCREREDYSPLIRVIGRVFSSAEALVQSFRKVKQHTKEELKSLQAKDEDKDEDEKEKAACSAAAMEEDSEASSSRIGDSSQGDNNTQKLGPDDVSVDIDAIRRVYTRLLSNEKIETAFLNALVYLSPNVECDLTYHNVYSRDPNYLNLFIIVMENRNLHSPEYLEMALPLFCKAMSKLPLAAQGKLIRLWSKYNADQIRRMMETFQQLITYKVISNEFNSTNLVNDDDAIVAASKCLKMVYYANVVGGEVDTNHNEEDDEEPIPESSELTLQELLGEERRNKKGPRVDPLETELGVKTLDCRKPLIPFEEFINEPLNEVLEMDKDYTFFKVETENKFSFMTCPFILNAVTKNLGLYYDNRIRMYSERRITVLYSLVQGQQLNPYLRLKVRRDHIIDDALVRLEMIAMENPADLKKQLYVEFEGEQGVDEGGVSKEFFQLVVEEIFNPDIGMFTYDNSTKLFWFNPSSFETEGQFTLIGIVLGLAIYNNTILDVHFPMVVYRKLMGKKGTFRDLGDSHPVLYQSLKDLLEYEGNVEDDMMITFQISQTDLFGNPMMYDLKENGDKIPITNENRKEFVNLYSDYILNKSVEKQFKAFRRGFHMVTNESPLKYLFRPEEIELLICGSRNLDFQALEETTEYDGGYTRDSVLIREFWEIVHSFTDEQKRLFLQNNTGTDRAPVGGLGKLKMIIAKNGPDTERLPTSHTCFNVLLLPEYSSKEKLKERLLKAITYAKGFGML
ubiquitination activity of the Ube3a S5a target protein (blot, bands of ubiquitinated S5A): different mutated forms of Ube3a ubiquitinate their S5A target
